Reference: patent publication US20160200831A1 (Sanofi, published 2016)

These binders were tested against T1, cynomolgus PAI-1 (cynomolgus monkey (Macaca fascicularis), UniProt P05121 24-402 (human entry)) (assay: Biacore).
T1 construct: produced in-house in E. coli (non-glycosylated); active cyno PAI-1 in the assays; also called cyno PAI-1; cPAI-1
T1 sequence (P05121 other isoform, or with tags, fused parts or gaps limits assumed): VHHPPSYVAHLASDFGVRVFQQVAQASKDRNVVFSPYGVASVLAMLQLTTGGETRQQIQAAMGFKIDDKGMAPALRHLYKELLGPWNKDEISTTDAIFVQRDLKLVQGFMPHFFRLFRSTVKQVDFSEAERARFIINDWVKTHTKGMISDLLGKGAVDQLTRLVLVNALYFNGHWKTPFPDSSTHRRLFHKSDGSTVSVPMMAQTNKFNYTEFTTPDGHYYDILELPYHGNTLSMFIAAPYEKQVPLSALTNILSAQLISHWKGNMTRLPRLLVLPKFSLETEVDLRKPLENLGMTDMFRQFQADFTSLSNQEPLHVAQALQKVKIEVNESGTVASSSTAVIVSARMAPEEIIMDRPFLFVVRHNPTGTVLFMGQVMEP

Row | Binder | binding result
1 | A44-hv1 (antibody, V domains shown, humanized A44, HEK293; also called LC1a x HC1a; variant 1) VH: EMTLKESGPTLVKPTQTLSLTCSVTGDSMTNGYWNWIRKFPGKALEYMGYITYSGSTYYNPSLKGRISITRNTSKNQYYLTLSSVTTVDTATYYCARWHYGSPYYFDYWGQGTTLTVSS VL: DIKMTQSPSSLSASVGDRVTITCKASQDINSYLSWLQQKPGKSPKTLIYRANRSVDGVPSRFSGSGSGQDYSLTISSLQPEDLGIYYCLQYDEFPPTFGGGTKLEIK | binds
2 | A44-hv2 (antibody, V domains shown, humanized A44, HEK293; constant regions as for A44-hv1; also called LC1b x HC1b; variant 2) VH: EMQLQESGPGLVKPSETLSLTCSVTGDSMTNGYWNWIRKFPGKGLEYMGYITYSGSTYYNPSLKGRISITRNTSKNQYYLKLSSVTTADTATYYCARWHYGSPYYFDYWGQGTTLTVSS VL: DIKMTQSPSSVSVSPGQTVTITCKASQDINSYLSWLQQKPGQSPKTLIYRANRSVDGVPSRFSGSGSGQDYSLTISSLQAMDEGIYYCLQYDEFPPTFGGGTKLTIK | binds
3 | A44-hv9 (antibody, V domains shown, humanized A44, HEK293; constant regions as for A44-hv1; also called LC5b x HC5b; variant 9) VH: QMQLQESGPGLVKPSETLSLTCTVSGDSMTNGYWNWIRQPPGKGLEYMGYITYSGSTYYNPSLKSRITISRDTSKNQYSLKLSSVTAADTAVYYCARWHYGSPYYFDYWGQGTLVTVSS VL: DIQMTQSPSSLSASVGDRVTITCKASQDINSYLSWLQQKPGKAPKTLIYRANRSVDGVPSRFSGSGSGQDYTFTISSLQPEDIATYYCLQYDEFPPTFGGGTKVEIK | binds
4 | A44-hv4 (antibody, V domains shown, humanized A44, HEK293; constant regions as for A44-hv1; also called LC1a x HC2b; variant 4) VH: EMTLKESGPTLVKPTQTLSLTCSVTGDSMTQGYWNWIRKFPGKALEYMGYITYSGSTYYNPSLKGRISITRNTSKNQYYLTLSSVTTVDTATYYCARWHYGSPYYFDYWGQGTTLTVSS VL: DIKMTQSPSSLSASVGDRVTITCKASQDINSYLSWLQQKPGKSPKTLIYRANRSVDGVPSRFSGSGSGQDYSLTISSLQPEDLGIYYCLQYDEFPPTFGGGTKLEIK | binds
5 | A44-hv6 (antibody, V domains shown, humanized A44, HEK293; constant regions as for A44-hv1; also called LC3 x HC3; variant 6) VH: QMTLKESGPTLVKPTQTLSLTCSVSGDSMTNGYWNWIRQFPGKALEYMGYITYSGSTYYNPSLKGRITITRDTSKNQYYLTLSSVTTVDTATYYCARWHYGSPYYFDYWGQGTTLTVSS VL: DIKMTQSPSSLSASVGDRVTITCKASQDINSYLSWLQQKPGKSPKTLIYRANRSVDGVPSRFSGSGSGQDYSLTISSLQPEDLATYYCLQYDEFPPTFGGGTKLEIK | binds
6 | A44-hv5 (antibody, V domains shown, humanized A44, HEK293; constant regions as for A44-hv1; also called LC2 x HC2b; variant 5) VH: EMTLKESGPTLVKPTQTLSLTCSVTGDSMTQGYWNWIRKFPGKALEYMGYITYSGSTYYNPSLKGRISITRNTSKNQYYLTLSSVTTVDTATYYCARWHYGSPYYFDYWGQGTTLTVSS VL: DIKMTQSPSSLSASVGDRVTITCKASQDINSYLSWLQQKPGKSPKTLIYRAQRSVEGVPSRFSGSGSGQDYSLTISSLQPEDLGIYYCLQYDEFPPTFGGGTKLEIK | binds
7 | A44-hv7 (antibody, V domains shown, humanized A44, HEK293; constant regions as for A44-hv1; also called LC4 x HC4; variant 7) VH: QMTLKESGPTLVKPTQTLSLTCSVSGESMTQGYWNWIRQFPGKALEYMGYITYSGSTYYNPSLKGRITITRQTSKNQYYLTLSSVTTVETATYYCARWHYGSPYYFDYWGQGTTLTVSS VL: DIKMTQSPSSLSASVGDRVTITCKASQDINSYLSWLQQKPGKSPKTLIYRAQRSVEGVPSRFSGSGSGQDYSLTISSLQPEDLATYYCLQYDEFPPTFGGGTKLEIK | binds
